Reference: publication PMC6013482, “Conformational switching of the pseudokinase domain promotes human MLKL tetramerization and cell death by necroptosis” (Nature Communications, 2018)

Target: E351K human MLKL (residues 2–471), recombinant (human) (UniProt Q8NB16)

E351K human MLKL (residues 2–471), recombinant (from UniProt Q8NB16 2-471) (natural protein)
liposome dye release (5(6)-carboxyfluorescein), 1 μM protein, with ATP (% maximum dye release): 40 | liposome dye release (5(6)-carboxyfluorescein), 1 μM protein, without ATP: 15 % of maximum
